Results on four molecules are retold here after PMC10470539, “Characterization of a novel aromatic substrate-processing microcompartment in Actinobacteria” (mBio, 2023).

For data set [1], the target named is T1, ARO AldDh (2-aminomuconic-6-semialdehyde dehydrogenase homolog) (Micromonospora rosaria, UniProt A0A136PUC7).
T1 construct: gene AWW66_10300; E. coli BL21(DE3), codon-optimized, untagged (pLD69); ammonium sulfate and HIC enriched; primers imply N-term MTGLWSPTL, C-term VDLS
T1 sequence (A0A136PUC7 1-502): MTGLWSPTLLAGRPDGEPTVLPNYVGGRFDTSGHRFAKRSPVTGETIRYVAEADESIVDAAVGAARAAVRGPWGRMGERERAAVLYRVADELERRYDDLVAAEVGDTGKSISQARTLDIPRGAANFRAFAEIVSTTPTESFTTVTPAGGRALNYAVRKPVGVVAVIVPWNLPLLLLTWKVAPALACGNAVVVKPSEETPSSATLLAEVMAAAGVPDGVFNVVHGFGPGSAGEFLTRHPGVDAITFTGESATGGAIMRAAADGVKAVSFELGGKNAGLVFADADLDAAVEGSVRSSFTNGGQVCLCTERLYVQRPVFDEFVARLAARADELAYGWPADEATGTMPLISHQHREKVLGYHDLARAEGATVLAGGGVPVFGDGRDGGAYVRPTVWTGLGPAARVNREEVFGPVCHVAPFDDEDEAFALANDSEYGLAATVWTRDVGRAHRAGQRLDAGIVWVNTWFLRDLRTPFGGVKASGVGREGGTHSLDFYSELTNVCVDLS
The data set is described as follows: coupled assay, absorption spectra, product 2-aminomuconate at […] nm. It counts as biochemical. The following applies: 2-AMS generated in situ from 0.5 µM 2-AP by ARO dioxygenase; 20 µM NAD+, 100 mM potassium phosphate pH 7.5.

The target in data set [2] is ARO AldDh (ARO 2-aminomuconic-6-semialdehyde dehydrogenase homolog) from Micromonospora rosaria (Micromonospora rosaria). As to the kind of experiment: SEC; purified ARO AldDh on analytical Superdex 200 10/300 GL in Buffer E (10 mM Tris-HCl pH 8.0, 0.5 M NaCl, 0.2 mM NAD+, 1 mM DTT, 5% glycerol); oligomer of the enzyme with itself. A general note: In gel filtration, larger molecules generally elute earlier.

In data set [3] the target is ARO dioxygenase beta subunit (2-aminophenol-1,6-dioxygenase beta subunit) from Micromonospora rosaria, His-tagged (Micromonospora rosaria). The data set is described as follows: crystal structure; ARO dioxygenase, sitting drop vapor diffusion at room temperature; 0.1 M Tris pH 8.0, 0.5 M ammonium, 28% PEG 8000; 1.75 Å, P1 cell.
Substrate in data set [4]: Nc1ccc(Cl)cc1O
As to the kind of experiment: purified protein. The note with it: 10 mM sodium phosphate pH 8.0, room temperature, 27 µg enzyme in 1 mL. It counts as biochemical, Micromonospora rosaria.

Substrate in data set [5]: Oc1ccccc1O
As to the kind of experiment: purified protein. It counts as biochemical, Micromonospora rosaria. The following applies: 10 mM sodium phosphate pH 8.0, room temperature, 27 µg enzyme in 1 mL.

Substrate in data set [6]: Nc1ccccc1O
The data set is described as follows: purified protein. It is filed as biochemical, Micromonospora rosaria. The following applies: 10 mM sodium phosphate pH 8.0, room temperature, 27 µg enzyme in 1 mL.

Broadly, the stoichiometry N is a count of units in the complex or per binding partner. In general, Km refers to the concentration of substrate that gives half-maximal velocity.

As for `N/C(=C\C=C\C=O)C(=O)O` [2-aminomuconate 6-semialdeyde], the “coupled assay, absorption spectra, product 2-aminomuconate at 326 nm” value in data set [1] is on record as “ability to convert 2-aminomuconate 6-semialdeyde (2-AMS) to 2-aminomuconate in vitro”.

Molecule “ARO AldDh (ARO 2-aminomuconic-6-semialdehyde dehydrogenase homolog) from Micromonospora rosaria (enzyme)” had a stoichiometry N in data set [2] of 3.

Consider “ARO dioxygenase beta subunit (2-aminophenol-1,6-dioxygenase beta subunit) from Micromonospora rosaria, His-tagged (natural protein)”, for which the stoichiometry N in data set [3] is 2.

B1: ARO dioxygenase (2-aminophenol-1,6-dioxygenase; ARO AmnA and AmnB) (Micromonospora rosaria) (protein)
chain: MSRVFRVPLAPTRGGATTAPRTPAPAPAPTRPGIVAGCLSPHPPHLIYGENPPQNEPRSTGGWETLRWAYERLRARIRDVHKPDVLIVHAPHWITMVGHHVNCVPNPRGLSVEPIFPHLFRYRYDFRTDVELGEAIAEEASGLGLVTRTLRDPRVRVDYATIGALHLANPAWDIPVVSLSANNNPYFYSDASLTEMEVLGEATRLAVEATGRRAVLLASNSLSHLHWHEEPELPEDMEREHPYNNHQYRWDMKLLEAIRRGPTAPLRDLIPEHIEATASETKAGSLTWMLAAMGWPKVAGDVLGYGTIIGTGNAIVEWLPEGSHH
notes: E. coli BL21(DE3) co-expression (codon-optimized; pLD54 alpha, pLD59 beta); beta with C-terminal 6xHis via Gly/Ser linker, tag kept; alpha untagged; 140 kDa dimer of heterodimers; modelled alpha D3-H278, beta T30-G322; iron in beta subunit; primers imply alpha N-term MADRTG, beta N-term MSRVFR; with 2-aminophenol 1,6-dioxygenase alpha subunit
For the molecule B1, the Km in the data set “purified protein [4]” stood at 29 µM; in “purified protein [5]”, 14 µM; in the data set “purified protein [6]”, 70 µM.
